The text below walks through data of the supplement of paper PMC7125110.

± gives the standard error. For some assays here: Variants at the floor of the assay were thinned out.

The chains are these.
B1: glmS ribozyme (parent)
chain: AUAAAAGCGCCAGAACUACAGAAAUGUAGUUGACGAGGAGGAGGUUUAUCGAAUUUUCGGCGGAUGCCUCCAAA

Holding throughout (conditions): with glucosamine-6-phosphate
Variants of B1 are the subject of data set [1]. The data set can be described thus: kcat; higher = faster cleavage; RNA array. The gist of the method:
(§1)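 kcat and KM were obtained from weighted Michaelis–Menten fits across concentrations of kobs values. Those came from one- or two-exponential decay fits to per-tile medians normalised to baseline and to non-cleaving reference variants. The variants were barcoded ribozymes transcribed in situ by E. coli RNA polymerase on sequenced MiSeq chips and tracked through a hybridised Cy3 probe at 37 °C, with 40 μM to 10 mM glucosamine-6-phosphate in HEPES/KCl/Mg(OAc)2 buffer flowed in.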

Data set [2] covers variants of B1. Nature of the data set: self-cleavage kobs at 40 uM GlcN6P; higher = faster cleavage; RNA array. The procedure, abridged:
as §1

Variants of B1 are the subject of data set [3]. Nature of the data set: self-cleavage kobs at 160 uM GlcN6P; higher = faster cleavage; RNA array. The gist of the method: as §1
The variants in data set [4] derive from B1. Nature of the data set: self-cleavage kobs at 640 uM GlcN6P; higher = faster cleavage; RNA array. The procedure, abridged:
as §1

Data set [5] covers variants of B1. Nature of the data set: self-cleavage kobs at 2500 uM GlcN6P; higher = faster cleavage; RNA array. The procedure, abridged: as §1
The variants in data set [6] derive from B1. Nature of the data set: self-cleavage kobs at 10000 uM GlcN6P; higher = faster cleavage; RNA array. The procedure, abridged:
as §1

The variants in data set [7] derive from B1. Nature of the data set: KM; higher = weaker cofactor use; RNA array. The gist of the method:
as §1

A word on the kcat: it is the maximal rate divided by the concentration of active sites. For the variant U55A A64G, in the data set with glucosamine-6-phosphate [1], the kcat was found to be 0.0275 ± 0.012 s⁻¹. Also, in the data set with glucosamine-6-phosphate [2], the “self-cleavage kobs at 40 uM GlcN6P” value was 0.000991 ± 0.00014 s⁻¹. For the same variant, the “self-cleavage kobs at 160 uM GlcN6P” value with glucosamine-6-phosphate [3] was determined as 0.00181 ± 0.00043 s⁻¹. Besides, the “self-cleavage kobs at 640 uM GlcN6P” value with glucosamine-6-phosphate [4] is 0.0094 ± 0.0023 s⁻¹. In addition, in the data set with glucosamine-6-phosphate [5], the “self-cleavage kobs at 2500 uM GlcN6P” value is 0.0275 ± 0.0092 s⁻¹. Also, the “self-cleavage kobs at 10000 uM GlcN6P” value in the data set with glucosamine-6-phosphate [6] is 0.0227 ± 0.0054 s⁻¹.

As for C61A U65G C67U, in the data set with glucosamine-6-phosphate [1], the kcat is 2.68e-05 ± 7.3e-06 s⁻¹.

Usually KM stands for the concentration of substrate that gives half-maximal velocity. For the variant G43U U45G, the turnover number (kcat) in the data set with glucosamine-6-phosphate [1] came out at 0.00603 ± 0.00084 s⁻¹. Also, the KM in the data set with glucosamine-6-phosphate [7] was determined as 1980 ± 380 µM. In addition, the “self-cleavage kobs at 40 uM GlcN6P” value with glucosamine-6-phosphate [2] came out at 0.00013 ± 1.9e-05 s⁻¹. In the data set with glucosamine-6-phosphate [3], the “self-cleavage kobs at 160 uM GlcN6P” value was determined as 0.000412 ± 0.00012 s⁻¹. In addition, the “self-cleavage kobs at 640 uM GlcN6P” value with glucosamine-6-phosphate [4] stood at 0.00124 ± 0.00027 s⁻¹. Moreover, the “self-cleavage kobs at 2500 uM GlcN6P” value in the data set with glucosamine-6-phosphate [5] was determined as 0.00422 ± 0.0011 s⁻¹. Moreover, in the data set with glucosamine-6-phosphate [6], the “self-cleavage kobs at 10000 uM GlcN6P” value turned out to be 0.005 ± 0.00078 s⁻¹.

Consider C70A C71A, for which the kcat in the data set with glucosamine-6-phosphate [1] amounted to 5.3e-05 ± 3.2e-06 s⁻¹. Besides, the KM with glucosamine-6-phosphate [7] was 181 ± 74 µM. Further, the “self-cleavage kobs at 640 uM GlcN6P” value with glucosamine-6-phosphate [4] stood at 4.65e-05 ± 9.4e-06 s⁻¹. Besides, the “self-cleavage kobs at 2500 uM GlcN6P” value with glucosamine-6-phosphate [5] turned out to be 4.82e-05 ± 7.4e-06 s⁻¹. In the data set with glucosamine-6-phosphate [6], the “self-cleavage kobs at 10000 uM GlcN6P” value was 5.11e-05 ± 9.4e-06 s⁻¹.

For the variant A53G U56G, the kcat in the data set with glucosamine-6-phosphate [1] was 0.0121 ± 0.004 s⁻¹. In addition, the KM with glucosamine-6-phosphate [7] came out at 1150 ± 530 µM. Further, in the data set with glucosamine-6-phosphate [2], the “self-cleavage kobs at 40 uM GlcN6P” value stood at 0.000497 ± 5.8e-05 s⁻¹. Moreover, the “self-cleavage kobs at 160 uM GlcN6P” value with glucosamine-6-phosphate [3] turned out to be 0.00116 ± 0.00024 s⁻¹. For the same variant, the “self-cleavage kobs at 640 uM GlcN6P” value with glucosamine-6-phosphate [4] came out at 0.00411 ± 0.00066 s⁻¹. Further, in the data set with glucosamine-6-phosphate [5], the “self-cleavage kobs at 2500 uM GlcN6P” value is 0.00635 ± 0.0012 s⁻¹. Also, in the data set with glucosamine-6-phosphate [6], the “self-cleavage kobs at 10000 uM GlcN6P” value was 0.0161 ± 0.0025 s⁻¹.

A53G U56C: the kcat with glucosamine-6-phosphate [1] came out at 0.00882 ± 0.0023 s⁻¹. Further, in the data set with glucosamine-6-phosphate [7], the KM is 2730 ± 950 µM. The “self-cleavage kobs at 40 uM GlcN6P” value with glucosamine-6-phosphate [2] amounted to 0.000169 ± 2.5e-05 s⁻¹. Further, the “self-cleavage kobs at 160 uM GlcN6P” value with glucosamine-6-phosphate [3] is 0.000447 ± 0.00011 s⁻¹. Besides, the “self-cleavage kobs at 640 uM GlcN6P” value with glucosamine-6-phosphate [4] worked out at 0.00135 ± 0.00025 s⁻¹. For the same variant, the “self-cleavage kobs at 2500 uM GlcN6P” value in the data set with glucosamine-6-phosphate [5] was determined as 0.00428 ± 0.001 s⁻¹. Moreover, the “self-cleavage kobs at 10000 uM GlcN6P” value in the data set with glucosamine-6-phosphate [6] was determined as 0.0073 ± 0.0011 s⁻¹.

In the case of G13A A39U, the kcat with glucosamine-6-phosphate [1] is 0.000349 ± 1.8e-05 s⁻¹. The Michaelis constant (KM) with glucosamine-6-phosphate [7] turned out to be 2910 ± 270 µM. In addition, the “self-cleavage kobs at 640 uM GlcN6P” value with glucosamine-6-phosphate [4] was found to be 6.49e-05 ± 8.9e-06 s⁻¹. Moreover, the “self-cleavage kobs at 2500 uM GlcN6P” value in the data set with glucosamine-6-phosphate [5] stood at 0.000153 ± 2e-05 s⁻¹. Besides, the “self-cleavage kobs at 10000 uM GlcN6P” value with glucosamine-6-phosphate [6] is 0.000277 ± 3.4e-05 s⁻¹.

Regarding G40C U47A, the kcat in the data set with glucosamine-6-phosphate [1] stood at 0.00182 ± 0.0003 s⁻¹. Also, the KM with glucosamine-6-phosphate [7] was 1170 ± 310 µM. In addition, in the data set with glucosamine-6-phosphate [2], the “self-cleavage kobs at 40 uM GlcN6P” value was 7.98e-05 ± 1.1e-05 s⁻¹. For the same variant, the “self-cleavage kobs at 160 uM GlcN6P” value in the data set with glucosamine-6-phosphate [3] worked out at 0.000192 ± 3.4e-05 s⁻¹. Moreover, the “self-cleavage kobs at 640 uM GlcN6P” value with glucosamine-6-phosphate [4] came out at 0.000511 ± 0.0001 s⁻¹. Further, in the data set with glucosamine-6-phosphate [5], the “self-cleavage kobs at 2500 uM GlcN6P” value is 0.00128 ± 0.00024 s⁻¹. Moreover, in the data set with glucosamine-6-phosphate [6], the “self-cleavage kobs at 10000 uM GlcN6P” value amounted to 0.0017 ± 0.00019 s⁻¹.

Take G40A U46C: the kcat in the data set with glucosamine-6-phosphate [1] was determined as 0.00192 ± 0.00051 s⁻¹. Also, in the data set with glucosamine-6-phosphate [7], the Michaelis-Menten constant (KM) was found to be 1280 ± 450 µM. Moreover, the “self-cleavage kobs at 40 uM GlcN6P” value with glucosamine-6-phosphate [2] was found to be 7.21e-05 ± 1.4e-05 s⁻¹. For the same variant, the “self-cleavage kobs at 160 uM GlcN6P” value with glucosamine-6-phosphate [3] came out at 0.000173 ± 3.9e-05 s⁻¹. Also, in the data set with glucosamine-6-phosphate [4], the “self-cleavage kobs at 640 uM GlcN6P” value was determined as 0.000699 ± 0.00012 s⁻¹. In addition, in the data set with glucosamine-6-phosphate [5], the “self-cleavage kobs at 2500 uM GlcN6P” value came out at 0.00107 ± 0.00036 s⁻¹. Further, in the data set with glucosamine-6-phosphate [6], the “self-cleavage kobs at 10000 uM GlcN6P” value was 0.00192 ± 0.00054 s⁻¹.

For G51A C70A, the kcat with glucosamine-6-phosphate [1] stood at 2.99e-05 ± 7.1e-06 s⁻¹. Further, the “self-cleavage kobs at 2500 uM GlcN6P” value in the data set with glucosamine-6-phosphate [5] turned out to be 3.24e-05 ± 1.5e-05 s⁻¹.

U57C C67A: in the data set with glucosamine-6-phosphate [1], the turnover number (kcat) came out at 3.95e-05 ± 1.7e-06 s⁻¹. In addition, the KM with glucosamine-6-phosphate [7] amounted to 157 ± 71 µM. Moreover, the “self-cleavage kobs at 640 uM GlcN6P” value in the data set with glucosamine-6-phosphate [4] was found to be 3.33e-05 ± 1.5e-05 s⁻¹. The “self-cleavage kobs at 2500 uM GlcN6P” value with glucosamine-6-phosphate [5] came to 3.6e-05 ± 1.1e-05 s⁻¹. The “self-cleavage kobs at 10000 uM GlcN6P” value with glucosamine-6-phosphate [6] came out at 3.97e-05 ± 1.2e-05 s⁻¹.

Turning to U55C A64U, the kcat in the data set with glucosamine-6-phosphate [1] was 5.99e-05 ± 7.9e-06 s⁻¹. Besides, the “self-cleavage kobs at 2500 uM GlcN6P” value with glucosamine-6-phosphate [5] was 4.69e-05 ± 8e-06 s⁻¹. The “self-cleavage kobs at 10000 uM GlcN6P” value with glucosamine-6-phosphate [6] is 5.2e-05 ± 5.7e-06 s⁻¹.

Turning to C61A C67U C71U, the kcat in the data set with glucosamine-6-phosphate [1] is 5.2e-05 ± 2.5e-05 s⁻¹. The “self-cleavage kobs at 640 uM GlcN6P” value with glucosamine-6-phosphate [4] stood at 8.57e-05 ± 2.8e-05 s⁻¹.

On to C10A C50A, for which the kcat in the data set with glucosamine-6-phosphate [1] was 2e-05 ± 5.5e-06 s⁻¹.

Turning to A39G U65A, the turnover number (kcat) with glucosamine-6-phosphate [1] stood at 0.0108 ± 0.0047 s⁻¹. Further, in the data set with glucosamine-6-phosphate [2], the “self-cleavage kobs at 40 uM GlcN6P” value amounted to 0.000266 ± 6.6e-05 s⁻¹. In addition, in the data set with glucosamine-6-phosphate [4], the “self-cleavage kobs at 640 uM GlcN6P” value is 0.00201 ± 0.00056 s⁻¹. The “self-cleavage kobs at 2500 uM GlcN6P” value in the data set with glucosamine-6-phosphate [5] amounted to 0.00741 ± 0.0031 s⁻¹. For the same variant, the “self-cleavage kobs at 10000 uM GlcN6P” value with glucosamine-6-phosphate [6] stood at 0.00966 ± 0.0034 s⁻¹.

As to U55C U69G, the kcat with glucosamine-6-phosphate [1] is 1.99e-05 ± 1.9e-06 s⁻¹.

Regarding U46C U69A, in the data set with glucosamine-6-phosphate [1], the kcat is 0.000242 ± 4.8e-05 s⁻¹. In the data set with glucosamine-6-phosphate [7], the KM turned out to be 686 ± 310 µM. In the data set with glucosamine-6-phosphate [3], the “self-cleavage kobs at 160 uM GlcN6P” value stood at 5.58e-05 ± 2.2e-05 s⁻¹. Also, in the data set with glucosamine-6-phosphate [4], the “self-cleavage kobs at 640 uM GlcN6P” value amounted to 9.77e-05 ± 2.8e-05 s⁻¹. For the same variant, in the data set with glucosamine-6-phosphate [5], the “self-cleavage kobs at 2500 uM GlcN6P” value came to 0.000199 ± 6.1e-05 s⁻¹. Moreover, the “self-cleavage kobs at 10000 uM GlcN6P” value with glucosamine-6-phosphate [6] was 0.000243 ± 6.5e-05 s⁻¹.
